In article PMC2894858 (PLoS ONE, 2010):
Non-standard residues stand in square brackets, D forms with d. No end group written: not given here. Aib = CC(C)(N)C(=O)O

Target: botulinum neurotoxin serotype A light chain (Clostridium botulinum, UniProt P0DPI1 1-420)
Test: HPLC-based protease inhibition assay (Dixon plots)
Conditions: both partners purified

Chain of botulinum neurotoxin serotype A light chain (P0DPI1 1-420): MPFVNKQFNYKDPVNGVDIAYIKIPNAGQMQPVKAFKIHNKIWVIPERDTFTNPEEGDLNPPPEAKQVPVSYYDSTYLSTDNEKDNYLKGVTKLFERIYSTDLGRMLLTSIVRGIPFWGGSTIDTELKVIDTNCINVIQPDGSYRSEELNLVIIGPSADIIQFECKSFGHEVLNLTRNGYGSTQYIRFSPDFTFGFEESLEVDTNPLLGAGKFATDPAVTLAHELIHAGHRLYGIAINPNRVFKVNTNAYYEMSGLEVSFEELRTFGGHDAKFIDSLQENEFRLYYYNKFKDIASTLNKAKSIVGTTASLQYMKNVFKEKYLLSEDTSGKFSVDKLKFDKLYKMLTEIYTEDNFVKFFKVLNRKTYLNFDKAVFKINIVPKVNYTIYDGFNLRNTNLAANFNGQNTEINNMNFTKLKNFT

Binder	Ki
RRW[Aib]AML-NH2 (not fully specified) [JTH-NB72-38]	990 nM
RRF[Aib]AML-NH2 [JTH-NB72-39]	638 nM
